{
  "source": "paper PMC11508043",
  "about": "(Nature, 2023)",
  "molecular_target": "Recombinant wild-type human histone H1.0 (human)",
  "experiment": "turbidity",
  "data": [
    {"binder": "ProTα (unlabelled) (natural protein, human) GPMSDAAVDTSSEITTKDLKEKKEVVEEAENGRDAPANGNANEENGEQEADNEVDEEEEEGGEEEEEEEEGDGEEEDGDEDEEAESATGKRAAEDDEDDDVDTKKQKTDEDD", "values": [
      {"measurement": "ProTα:H1 ratio at maximum phase separation", "value": "1.2 ProTα:H1"}
    ]}
  ]
}
